From patent US11059903B2, “Anti-PSMA antibodies, uses thereof and conjugates thereof” (Polytherics Limited, priority 2016, dated 2021)
Square brackets hold non-standard residues; d marks the D form. Peptide text beside a SMILES is read from it. * marks the point of attachment. Dolaproine = CO[C@@H]([C@@H]1CCCN1)[C@@H](C)C(=O)O; Dil = CC[C@H](C)[C@H](NC)[C@@H](CC(=O)O)OC; X1 = C[C@@H](N*)[C@@H](O)c1ccccc1; NMeV = CN[C@H](C(=O)O)C(C)C

Key:
C4-2 cells = experiment: In vitro cell viability assay (CellTiter Glo) on C4-2 cells; format: cell-based; details: anti-proliferative effect, 96 h
Description: (§1) The in vitro efficacies of ADCs 1 to 7, prepared as described within Example 4, were determined by measuring their inhibitory effect upon cell growth of PSMA over-expressing cancer cell lines.
(§2) Loss of tumour cell viability following treatment with cytotoxic drugs or ADCs in vitro can be measured by growing cell lines in the presence of increasing concentrations of drugs or ADCs and quantifying the loss of proliferation or metabolic activity using CellTiter Glo® Luminescence reagent (Promega Corp.). The protocol describes cell seeding, drug treatment and determination of the cell viability in reference to untreated cells based on ATP synthesis, which is directly related to the number of cells present in the well. […]
(§3) The cell viability assay was carried out using the Cell-Titer Glo® Luminescence reagent, as described by the manufacturer's instructions, (Promega Corp. Technical Bulletin TB288; Lewis Phillips G. D, Cancer Res 2008; 68:9280-9290). Luminescence was recorded using a plate reader (e.g. Molecular Devices Spectramax M3 plate reader), and data subsequently analysed using a four parameter non-linear regression model. […]
(§4) PSMA-positive LNCaP (clone FGC) and C4-2 cells were detached with TrypLE and resuspended in complete medium. Cells were counted using disposable Neubauer counting chambers and cell density adjusted to 10×10^4 cells/mL for LNCaP and 2×10^4 cells/mL for C4-2. […]

LNCaP cells = experiment: In vitro cell viability assay (CellTiter Glo) on LNCaP cells; format: cell-based; details: anti-proliferative effect, 96 h
Description: as §1, §2, §3, §4

[1] = Heat stress test, aggregation analysed by SEC; format: physicochemical
Description: Antibody samples (0.5 mg/mL in PBS) were incubated at 75° C. for 30 min followed by incubation in an ice-bath for 5 min prior to being analysed for their extent of aggregation. Analysis of antibody solutions was carried out by Size Exclusion Chromatography (SEC) and by turbidity measurements.
SEC was performed using a TOSOH Bioscience TSK gel Super SW 3000 column. UV absorbance at 280 nm was monitored during an isocratic elution with a 0.2 M Potassium phosphate buffer, pH 6.8 (0.2 M potassium chloride and 15% isopropanol). The elution times and number of peaks indicate whether the sample contains aggregated, degraded or native antibody. The % area under the curve (Abs280) was used to determine the quantity of each species present in the SEC analysis.

[2] = post stress test: 0.5 mg/mL in PBS, 75° C. for 30 min, SEC % area

For CC[C@H](C)[C@@H]([C@@H](CC(=O)N1CCC[C@H]1[C@H](OC)[C@@H](C)C(=O)N[C@H](C)[C@@H](O)c1ccccc1)OC)N(C)C(=O)[C@@H](NC(=O)[C@@H](NC)C(C)C)C(C)C [MMAE] (H-[NMeV]V[Dil][Dolaproine]-X1), which IC50 (C4-2 cells) is on record?
Its IC50 is 0.63 nM.

And the IC50 (LNCaP cells)?
Its IC50 is 2.23 nM.

Which “Stability compared with AB-02 to AB-06 antibodies” value ([1]; heat stress test, in words) does the source give for “AB-10: Prior art de-immunised J591 anti-PSMA antibody, heavy chain SEQ ID No 3, light chain SEQ ID No 4 [reference compound]” here?
Its value is “less stable”.

What about the “Ab in aggregated form (%)” value [1, 2] of the same molecule?
The value was 99.6%.

What about the “Ab in native conformation (%)” value [1, 2] of the same molecule?
Its value is 0.4%.
